Entries after “also recorded” stand apart in the source; their conditions may differ.
Legend:
[1] = Serum phosphate and intact FGF23 after sKL injection in rats; assay type: in vivo, rat; details: sKL 100 μg/kg tail vein
Method: To determine the half-life of recombinant sKL protein in the circulation, rats were injected with the Strep-tagged mouse sKL that was purified as described above. Each group consisted of 3 male Sprague Dawley rats (9 weeks of age and weighing approximately 300 g). For injections and bleeding, rats were anesthetized with 2.5% isoflurane. For injections, a shielded i.v. catheter (BD Insyte Autoguard 0.7×19 mm, catalog no. 381412) was inserted into the lateral tail vein and flushed with 100 μl of isotonic saline (0.9%). One milliliter of purified sKL protein dissolved in isotonic saline (100 μg/kg) or isotonic saline was then injected, and the catheter was flushed again with 100 μl of isotonic saline. For bleeding, a shielded i.v. catheter was inserted into the lateral tail vein. Blood samples (300 μl) were taken after 1, 3, 5, 10, 15, 30, and 60 minutes as well as 3, 6, 12, and 48 hours. For collections from 15 minutes to 48 hours postinjection, a separate i.v. catheter was inserted each time to draw blood. […] Reactions were stopped with ELISA stop solution (E115, Bethyl Laboratories) and analyzed using the Synergy HI plate reader (BioTek) at 450 nm wavelength. Amounts of sKL were calculated by taking the slope of the standard curve and calculating where the sample points fit in.

FGF23 = biological target: T1, FGF23 (Homo sapiens, UniProt Q9GZV9); test: Plate-based binding assay, FGF23 coated, FLAG-sKL detected with anti-FLAG HRP; details: for binding of FLAG-sKL to coated FGF23 (absorbance at 450 nm): 10 ng FGF coated, 40 ng FLAG-sKL; for binding of FLAG-sKL to coated FGF23 compared with FGFR1c: 20 ng FGF23 coated, 80 ng FLAG-sKL
T1 construct: purchased R&D Systems 2604FG025/CF (human) or 2629FG025/CF (mouse)
T1 sequence (Q9GZV9 25-251): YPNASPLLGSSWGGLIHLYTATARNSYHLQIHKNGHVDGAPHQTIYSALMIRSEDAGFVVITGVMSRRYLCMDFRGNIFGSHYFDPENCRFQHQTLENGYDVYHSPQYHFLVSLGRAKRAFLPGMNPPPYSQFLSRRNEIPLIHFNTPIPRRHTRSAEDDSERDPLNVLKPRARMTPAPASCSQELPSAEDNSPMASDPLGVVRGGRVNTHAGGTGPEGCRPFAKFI
Method: (§1) Proteins were coated on 96-well plates (MaxiSorp; 439454, Thermo Fisher Scientific), and proteins were added to wells in 100 μl of enzyme-linked immunosorbent assay (ELISA) coating buffer (E107, Bethyl Laboratories) with a lid placed overtop and incubated at 4° C. overnight. Plates were washed 5× with 350 μl of assay buffer (50 mM Tris [pH 7.4], 200 mM NaCl, 0.01% Tween 20) on a 50 TS microplate washer (BioTek). Plates were blocked for 1 hour in 200 μl of assay buffer with 0.5% BSA. Plates were washed as before, and proteins were incubated on plates in 100 μl of assay buffer with 0.5% BSA. Proteins or heparin was incubated in orders described in the respective figure legends. Assays using FLAG-tag-based detection were incubated with anti-FLAG coupled to HRP at 1:20,000, and assays using Fc detection were incubated with anti-human Fc coupled to HRP at 1:10,000. Plates were washed as above, and 100 μl of 3,3′,5,5′-tetramethylbenzidine (TMB) substrate (E102, Bethyl Laboratories) was added for 15 to 20 minutes until positive wells developed a dark blue color. Reactions were stopped with ELISA stop solution (E115, Bethyl Laboratories) and analyzed using the Synergy HI plate reader (BioTek) at 450 nm wavelength. […] As a control to remove background absorbance values, wells were coated with an equal amount of BSA to match the amount of protein coated in experimental wells and treated the same as experimental wells. To study the effects of sKL on the binding between paracrine FGFs and FGFRs, plates were run as above except coated with paracrine FGFs. Fc-FGFR1 was preincubated with sKL or vehicle for 60 minutes, and then the combination was added to wells and the assay was run as before.

FGFR4 = biological target: T2, FGFR4 (Homo sapiens, UniProt P22455); test: Plate-based binding assay, FGFR4 coated, FLAG-sKL detected with anti-FLAG HRP; details: 40 ng FGFR4 coated, 80 ng FLAG-sKL, compared with FGFR1c
T2 construct: Fc-FGFR4 protein (human ectodomain) was immobilized; purchased R&D Systems 685FR050
T2 sequence (P22455 22-369 limits assumed): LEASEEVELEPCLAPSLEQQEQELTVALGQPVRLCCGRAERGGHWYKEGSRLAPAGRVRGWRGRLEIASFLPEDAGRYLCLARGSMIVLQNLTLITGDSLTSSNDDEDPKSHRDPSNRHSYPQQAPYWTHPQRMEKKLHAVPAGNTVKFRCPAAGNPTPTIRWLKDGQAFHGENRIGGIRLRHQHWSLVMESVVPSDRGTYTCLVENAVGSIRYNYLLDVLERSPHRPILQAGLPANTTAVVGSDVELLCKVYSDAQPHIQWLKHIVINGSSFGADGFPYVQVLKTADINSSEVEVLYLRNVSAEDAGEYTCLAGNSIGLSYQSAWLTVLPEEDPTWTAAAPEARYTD
Method: as §1, with “Plates were washed as above, and 100 μl of 3,3′,5,5′-tetramethylbenzidine (TMB) substrate (E102, Bethyl Laboratories) was added for 15 to 20 minutes until positive wells developed a dark blue color.” left out, “To study the effects of sKL on the binding between paracrine FGFs and FGFRs, plates were run as above except coated with paracrine FGFs. Fc-FGFR1 was preincubated with sKL or vehicle for 60 minutes, and then the combination was added to wells and the assay was run as before.” left out

mouse model of CKD = details: administration of sKL; cited from earlier work

B1: sKL: recombinant soluble α-klotho ectodomain, mouse aa 35-982 and human aa 34-981, FLAG- or Strep/His-tagged, purified from HEK293 cells (protein)
chain: EPGDGAQTWARFSRPPAPEAAGLFQGTFPDGFLWAVGSAAYQTEGGWQQHGKGASIWDTFTHHPLAPPGDSRNASLPLGAPSPLQPATGDVASDSYNNVFRDTEALRELGVTHYRFSISWARVLPNGSAGVPNREGLRYYRRLLERLRELGVQPVVTLYHWDLPQRLQDAYGGWANRALADHFRDYAELCFRHFGGQVKYWITIDNPYVVAWHGYATGRLAPGIRGSPRLGYLVAHNLLLAHAKVWHLYNTSFRPTQGGQVSIALSSHWINPRRMTDHSIKECQKSLDFVLGWFAKPVFIDGDYPESMKNNLSSILPDFTESEKKFIKGTADFFALCFGPTLSFQLLDPHMKFRQLESPNLRQLLSWIDLEFNHPQIFIVENGWFVSGTTKRDDAKYMYYLKKFIMETLKAIKLDGVDVIGYTAWSLMDGFEWHRGYSIRRGLFYVDFLSQDKMLLPKSSALFYQKLIEKNGFPPLPENQPLEGTFPCDFAWGVVDNYIQVDTTLSQFTDLNVYLWDVHHSKRLIKVDGVVTKKRKSYCVDFAAIQPQIALLQEMHVTHFRFSLDWALILPLGNQSQVNHTILQYYRCMASELVRVNITPVVALWQPMAPNQGLPRLLARQGAWENPYTALAFAEYARLCFQELGHHVKLWITMNEPYTRNMTYSAGHNLLKAHALAWHVYNEKFRHAQNGKISIALQADWIEPACPFSQKDKEVAERVLEFDIGWLAEPIFGSGDYPWVMRDWLNQRNNFLLPYFTEDEKKLIQGTFDFLALSHYTTILVDSEKEDPIKYNDYLEVQEMTDITWLNSPSQVAVVPWGLRKVLNWLKFKYGDLPMYIISNGIDDGLHAEDDQLRVYYMQNYINEALKAHILDGINLCGYFAYSFNDRTAPRFGLYRYAADQFEPKASMKHYRKIIDSNGFPGPETLERFCPEEFTVCTECSFFHTRKS
modifications: left off: small tags and cut ends
notes: recombinant soluble α-klotho ectodomain, mouse aa 35-982 and human aa 34-981, FLAG- or Strep/His-tagged, purified from HEK293 cells
serum phosphate levels ([1]; serial bleeds): not significantly altered | serum intact FGF23 levels ([1]; serial bleeds incl. 48 hours): increases in serum concentrations of FGF23; also recorded: significantly elevated | binding of FLAG-sKL to coated FGF23 (absorbance at 450 nm) (FGF23): bound FGF23 | binding of FLAG-sKL to coated FGF23 (absorbance at 450 nm) (FGF23; listed as FLAG-sKL): only FGF23 bound FLAG-sKL | binding of FLAG-sKL to coated FGF23 compared with FGFR1c (FGF23): to a lesser extent | binding of FLAG-sKL to coated FGF23 compared with FGFR1c (FGF23; listed as FLAG-sKL): to a lower extent | FGF23 binding affinity, protein from HEK293 lysates instead of supernatants (FGF23; 100 ng FGF23 coated, normalized to sKL amounts): higher | binding of FLAG-sKL to coated FGFR4 (FGFR4): to a lesser extent | binding of FLAG-sKL to coated FGFR4 (FGFR4; listed as FLAG-sKL): to a lower extent | development of ventricular arrhythmias (mouse model of CKD): protects
